Reference: patent US20070238638A1 (TANOX, published 2007)

Target: T1, NFκB family member p65 (human, UniProt Q04206 1-551)
T1 construct: also called p65 NFκB protein
Assay: EMSA gel supershift, HT29 nuclear extract on κB1 oligonucleotide
Procedure: Gel supershift assays were performed as described above, except that antibodies specific for various promoter-binding proteins were added after the initial binding reaction and the mixture was incubated overnight at 4° C.

T1 sequence (Q04206 whole entry): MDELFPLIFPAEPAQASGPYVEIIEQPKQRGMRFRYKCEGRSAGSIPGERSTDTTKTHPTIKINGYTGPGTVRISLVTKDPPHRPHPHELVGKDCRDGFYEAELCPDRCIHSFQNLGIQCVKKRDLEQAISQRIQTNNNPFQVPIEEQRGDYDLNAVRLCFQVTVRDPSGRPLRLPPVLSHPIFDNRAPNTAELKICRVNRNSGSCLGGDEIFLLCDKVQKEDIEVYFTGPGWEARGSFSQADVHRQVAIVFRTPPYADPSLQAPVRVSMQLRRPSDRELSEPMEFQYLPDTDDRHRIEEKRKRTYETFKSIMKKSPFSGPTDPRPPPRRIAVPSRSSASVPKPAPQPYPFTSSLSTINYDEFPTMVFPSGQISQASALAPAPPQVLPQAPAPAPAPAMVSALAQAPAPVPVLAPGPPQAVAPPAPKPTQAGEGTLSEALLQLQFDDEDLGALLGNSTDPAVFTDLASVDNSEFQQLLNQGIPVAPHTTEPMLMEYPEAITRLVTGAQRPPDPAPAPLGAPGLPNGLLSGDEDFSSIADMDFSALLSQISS

binding result: binds
B1: NFκB family member p50 (other, human, UniProt P19838 1-433, looked up)
chain: MAEDDPYLGRPEQMFHLDPSLTHTIFNPEVFQPQMALPTDGPYLQILEQPKQRGFRFRYVCEGPSHGGLPGASSEKNKKSYPQVKICNYVGPAKVIVQLVTNGKNIHLHAHSLVGKHCEDGICTVTAGPKDMVVGFANLGILHVTKKKVFETLEARMTEACIRGYNPGLLVHPDLAYLQAEGGGDRQLGDREKELIRQAALQQTKEMDLSVVRLMFTAFLPDSTGSFTRRLEPVVSDAIYDSKAPNASNLKIVRMDRTAGCVTGGEEIYLLCDKVQKDDIQIRFYEEEENGGVWEGFGDFSPTDVHRQFAIVFKTPKYKDINITKPASVFVQLRRKSDLETSEPKPFLYYPEIKDKEEVQRKRQKLMPNFSDSFGGGSGAGAGGGGMFGSGGGGGGTGSTGPGYSFPHYGFPTYGGITFHPGTTKSNAGMKHG
notes: also called p50 NFκB protein
